Measured values: patent publication US20220235380

Biological target: ALPG/P priming receptor encoded by the LG1 + FAS/PTPN2 shRNA circuits AB-1013, AB-1014 and AB-1015
Sequence (chain, as listed by the source): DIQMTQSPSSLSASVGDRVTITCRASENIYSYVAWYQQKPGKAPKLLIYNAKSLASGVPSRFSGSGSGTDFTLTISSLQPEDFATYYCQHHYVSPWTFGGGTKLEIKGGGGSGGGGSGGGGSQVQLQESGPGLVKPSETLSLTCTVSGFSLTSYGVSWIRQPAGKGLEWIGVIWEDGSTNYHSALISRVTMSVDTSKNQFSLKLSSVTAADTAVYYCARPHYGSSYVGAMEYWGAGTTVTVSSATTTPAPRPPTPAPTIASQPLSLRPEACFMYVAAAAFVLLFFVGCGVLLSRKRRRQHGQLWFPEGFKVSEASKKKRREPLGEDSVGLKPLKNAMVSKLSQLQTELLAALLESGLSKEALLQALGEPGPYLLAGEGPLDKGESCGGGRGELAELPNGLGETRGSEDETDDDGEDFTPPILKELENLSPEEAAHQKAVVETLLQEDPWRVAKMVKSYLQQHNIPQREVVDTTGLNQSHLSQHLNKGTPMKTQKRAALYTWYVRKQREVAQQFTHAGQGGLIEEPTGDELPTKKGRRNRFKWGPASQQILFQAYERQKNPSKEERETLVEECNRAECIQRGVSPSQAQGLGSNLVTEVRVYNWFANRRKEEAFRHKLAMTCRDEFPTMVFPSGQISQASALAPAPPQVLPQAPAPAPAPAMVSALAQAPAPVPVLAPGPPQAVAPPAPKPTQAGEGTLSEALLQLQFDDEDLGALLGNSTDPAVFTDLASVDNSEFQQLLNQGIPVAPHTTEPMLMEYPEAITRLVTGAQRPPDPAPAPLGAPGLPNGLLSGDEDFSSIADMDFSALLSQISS

B1: Alkaline Phosphatase, Germ Cell (ALPG), expressed on engineered K562 cells (protein)
chain: IIPVEEENPDFWNRQAAEALGAAKKLQPAQTAAKNLIIFLGDGMGVSTVTAARILKGQKKDKLGPETFLAMDRFPYVALSKTYSVDKHVPDSGATATAYLCGVKGNFQTIGLSAAARFNQCNTTRGNEVISVMNRAKKAGKSVGVVTTTRVQHASPAGAYAHTVNRNWYSDADVPASARQEGCQDIATQLISNMDIDVILGGGRKYMFPMGTPDPEYPDDYSQGGTRLDGKNLVQEWLAKHQGARYVWNRTELLQASLDPSVTHLMGLFEPGDMKYEIHRDSTLDPSLMEMTEAALLLLSRNPRGFFLFVEGGRIDHGHHESRAYRALTETIMFDDAIERAGQLTSEEDTLSLVTADHSHVFSFGGYPLRGSSIFGLAPGKARDRKAYTVLLYGNGPGYVLKDGARPDVTESESGSPEYRQQSAVPLDGETHAGEDVAVFARGPQAHLVHGVQEQTFIAHVMAFAACLEPYTACDLAPRAGTTD
% CAR Conversion, time to peak: reached a peak after around 100 hours of stimulation with the PrimeR antigen
